Measurements: patent publication US6177557, “High affinity ligands of basic fibroblast growth factor and thrombin” (NeXstar Pharmaceuticals, Inc.)

Assays:
[1] = target: T1, basic fibroblast growth factor (bFGF) (UniProt P09038 P09038:135-288); experiment: filter; PBS, 0.01% HSA, 1 mM DTT, 37 C; +/-0.3; conditions: tags: Bachem California, 18 kDa, 154 aa; 125I-labeled for receptor assays
Protocol: (§1) This affinity screening allowed identification of those ligands with highest affinity for bFGF. Binding of a group of these ligands was analyzed over a range of bFGF concentrations (FIG. 5) and their dissociation constants.(Kd's) were determined as described (Jellinek et al. (1993) Proc. Natl. Acad. Sci. USA 90:11227–11231) (Table IX). RNA concentrations were determined from their absorbance reading at […] (and were typically <100 pM). Binding reactions were done at 37° C. in phosphate buffered saline containing 0.01% human serum albumin and 1 mM DTT.

[2] = target: T1, basic fibroblast growth factor (bFGF); experiment: filter; PBS, 0.01% HSA, 1 mM DTT, 37 C; +/-0.5; conditions: tags: Bachem California, 18 kDa, 154 aa; 125I-labeled for receptor assays
Protocol: as §1

[3] = target: T1, basic fibroblast growth factor (bFGF); experiment: filter; PBS; conditions: tags: Bachem California, 18 kDa, 154 aa; 125I-labeled for receptor assays; label: 32P
Protocol: (§2) In order to eliminate higher order structures, all DNA solutions were heated to 90° C. in PBS for 2–3 minutes and cooled on ice prior to incubation with protein. Relative binding affinity of individual ligands to bFGF cannot be predicted from sequence information. The majority of sequence isolates were therefore screened for their ability to bind to bFGF by measuring the fraction of radiolabeled DNA bound to nitrocellulose filters following incubation with 1 nM protein. […] Binding of these select isolates was then analyzed in more detail.

[4] = target: T1, basic fibroblast growth factor (bFGF); experiment: filter; conditions: tags: Bachem California, 18 kDa, 154 aa; 125I-labeled for receptor assays
Protocol: as §2
Those ligands are M225, M19, m234, M235, and D12 (SEQ ID NOS:359, 353, 387, 360, 332). The minimum size of the region necessary for binding was determined to be 35 bases for M225, M19 and D12 (See Truncations, Table XXI M225t3 (SEQ ID NO:364), M19t2 (SEQ ID NO:365), D12t2 (SEQ ID NO:341)). The ligand with the smallest essential sequence, m234, was isolated from Family 2, Experiment 3 and contains 24 nucleotides (m234t2 (SEQ ID NO:391)). The truncated ligands were tested for binding to bFGF. After truncation, ligands M225t3, M19t2, D12t2, M235t2, and m234t2 have kd values of 0.7 nM, 1 nM, 1 nM, 1 nM, and 6 nM respectively (Table XXII). All five of the truncated molecules lost some of their affinity for bFGF in comparison to the full length ligands. The binding affinity is regained when an additional G-C base pair is added to the blunt end stem of M225t3. This molecule is termed M225t3GC (SEQ ID NO:443). The binding of M225t3GC is 0.2 nM compared to 0.7 nM for M225t3 without the additional base pair (Table XXII).

thrombin (alpha) [5] = target: T2, thrombin (alpha) (human, UniProt P00734;P00734 P00734:328-363,P00734:364-622); experiment: filter; specificity, data not shown
antithrombin III = antithrombin III (UniProt P01008 P01008:33-464); experiment: filter; specificity, data not shown; conditions: label: 32P
acidic FGF = acidic FGF (UniProt P05230 P05230:16-155); experiment: filter; specificity, data not shown; conditions: label: 32P
[6] = target: vascular endothelial growth factor (VEGF) (UniProt P15692-4 P15692-4:27-191); experiment: filter; specificity, data not shown; conditions: chain copies: 2; label: 32P
thrombin (alpha) [7] = target: T2, thrombin (alpha); experiment: filter; 50 mM Tris pH 7.5, 100 mM NaCl, 1 mM MgCl2, 37 C

Chain of acidic FGF (P05230 16-155, one chain of several): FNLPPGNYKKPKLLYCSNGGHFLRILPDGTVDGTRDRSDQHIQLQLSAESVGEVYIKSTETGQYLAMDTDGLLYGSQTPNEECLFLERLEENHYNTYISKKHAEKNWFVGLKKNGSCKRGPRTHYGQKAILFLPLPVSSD
Chain of vascular endothelial growth factor (VEGF) (P15692 other isoform, or with tags, fused parts or gaps): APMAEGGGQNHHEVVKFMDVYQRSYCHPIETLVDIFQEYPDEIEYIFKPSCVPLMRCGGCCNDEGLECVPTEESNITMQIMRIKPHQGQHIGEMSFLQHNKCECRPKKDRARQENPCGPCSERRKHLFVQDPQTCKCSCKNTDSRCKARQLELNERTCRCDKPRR
Chain of antithrombin III (P01008 33-464, one chain of several): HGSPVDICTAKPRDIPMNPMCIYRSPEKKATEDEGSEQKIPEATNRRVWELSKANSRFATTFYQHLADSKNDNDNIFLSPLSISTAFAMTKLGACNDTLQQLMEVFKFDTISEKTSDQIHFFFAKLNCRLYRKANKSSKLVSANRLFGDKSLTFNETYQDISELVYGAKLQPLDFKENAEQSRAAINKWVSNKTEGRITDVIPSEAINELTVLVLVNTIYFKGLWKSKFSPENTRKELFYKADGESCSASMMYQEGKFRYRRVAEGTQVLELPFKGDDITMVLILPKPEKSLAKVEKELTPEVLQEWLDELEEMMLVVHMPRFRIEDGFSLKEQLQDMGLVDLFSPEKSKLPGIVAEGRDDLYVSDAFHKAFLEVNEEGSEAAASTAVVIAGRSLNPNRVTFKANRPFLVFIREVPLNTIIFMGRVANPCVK
T1 sequence (P09038 135-288, one chain of several): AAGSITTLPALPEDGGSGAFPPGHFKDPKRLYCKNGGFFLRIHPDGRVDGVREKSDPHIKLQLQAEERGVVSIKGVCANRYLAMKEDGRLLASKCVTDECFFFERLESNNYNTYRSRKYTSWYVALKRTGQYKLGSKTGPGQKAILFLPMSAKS

B1: 2'-NH2 49A (ssRNA)
RNA: GGGAGACAAGAAUAACGCUCAAAUGGUGUGUGGAAGACAGUGGGUGGUUGCAUUCGACAGGAGGCUCACAACAGGC
modifications: 2'-NH2 pyrimidines
- Kd [1]: 1.4 nM

B2: 2'-NH2 53A (ssRNA)
RNA: GGGAGACAAGAAUAACGCUCAAUGAGGAUCGGAUGGGGAGCAGGCGGAGGAAUUCGACAGGAGGCUCACAACAGGC
modifications: 2'-NH2 pyrimidines
- Kd [1]: 1.5 nM

B3: 2'-NH2 54A (ssRNA)
RNA: GGGAGACAAGAAUAACGCUCAAACUGUUGUGUGGAAGACAGCGGGUGGUUGAUUCGACAGGAGGCUCACAACAGGC
modifications: 2'-NH2 pyrimidines
- Kd [1]: 1.7 nM

B4: 2'-NH2 58A (ssRNA)
RNA: GGGAGACAAGAAUAACGCUCAAUUAACGGCGUGGUCCGAGGGUGGCGAGUACUUCGACAGGAGGCUCACAACAGGC
modifications: 2'-NH2 pyrimidines
- Kd [1]: 1.4 nM

B5: 2'-NH2 22B (ssRNA)
RNA: GGGAGGACGAUGCGGCGUGGUUCCGUGGGUGGUGAGAUGAGACUUAAUCAGUUCGUAGACCGGUCAGACGACUCGCCCGA
modifications: 2'-NH2 pyrimidines
- Kd [2]: 2.8 nM

B6: 2'-NH2 47B (ssRNA)
RNA: GGGAGGACGAUGCGGAGGGUGGCUGGGAGGACCCGCGGUGAAUCGGUAGCACAGUGAUGUUCGGUCAGACGACUCGCCCGA
modifications: 2'-NH2 pyrimidines
- Kd [1]: 2.9 nM

B7: 2'-NH2 52B (ssRNA)
RNA: GGGAGGACGAUGCGGGGAGGGGCAGGUUCGAUGCGGGAGCGACUGACCACGAGAAAUGUGCGGGUCAGACGACUCGCCCGA
modifications: 2'-NH2 pyrimidines
- Kd [1]: 2.3 nM

B8: 2'-NH2 72B (ssRNA)
RNA: GGGAGGACGAUGCGGCUCAGCAUCCAGGAAGGGGACUUGGUAGGGCACCAUCGAGAUCUUGGCGUCAGACGACUCGCCCGA
modifications: 2'-NH2 pyrimidines
- Kd [2]: 3.4 nM

B9: M17 (ssDNA)
DNA: GGGAGGACGATGCGGGGGGCTTTGCAAAAATTGTTAAATCTACCCCAGACGACGACGGGGA
- Kd [3]: 6.9 nM

B10: M19 (ssDNA)
DNA: GGGAGGACGATGCGGGGCTATGTAAATTACTGCTGTACTACGCATCAGACGACGACGGGGA
- Kd [3]: 0.3 nM

B11: m206 (ssDNA)
DNA: GGGAGGACGATGCGGACCTGGTGGCTGTGCTTATGTCCCCCTCATCAGACGACGACGGGGA
- Kd [3]: 1.8 nM

B12: m224 (ssDNA)
DNA: GGGAGGACGATGCGGCACCGAGGAATAACTGACGCCAGGCTGGCGCAGACGACGACGGGGA
- Kd [3]: 1.5 nM

B13: M225 (ssDNA)
DNA: GGGAGGACGATGCGGGGCTACGTACCGGGGCTTTGTAAAACCCCGCAGACGACGACGGGGA
- Kd [3]: 0.1 nM

B14: m234 (ssDNA)
DNA: GGGAGGACGATGCGGCCCGAGGAGCTTTAGCGCCACAGGTTTGTGCAGACGACGACGGGGA
- Kd [3]: 0.7 nM

B15: M235 (ssDNA)
DNA: GGGAGGACGATGCGGGGCTCTGCAAAGGACACAGGTCCTACGCATCAGACGACGACGGGGA
- Kd [3]: 0.2 nM

B16: M19t2 (ssDNA)
DNA: GCGGGGCTATGTAAATTACTGCTGTACTACGCATC
- Kd [4]: 1 nM

B17: M235t2 (ssDNA)
DNA: GCGGGGCTCTGCAAAGGACACAGGTCCTACGCATCAG
- Kd [4]: 1 nM

B18: D12t2 (ssDNA)
DNA: AGGCCAGGGCTATGCAAATCGCGGCGCCTATGGCC
- Kd [4]: 1 nM

B19: m234t2 (ssDNA)
DNA: CGAGGAGCTTTAGCGCCACAGGTT
- Kd [4]: 6 nM

B20: M225t3GC (ssDNA)
DNA: GGCGGGGCTACGTACCGGGGCTTTGTAAAACCCCGCC
- Kd [4]: 0.2 nM

B21: 5A (ssRNA)
RNA: GGGAGCUCAGAAUAAACGCUCAAAUCUCCUCCCGUCGAAGCUAACCUGGCCACUUCGACAUGAGGCCCGGAUCCGGC
- Kd (thrombin (alpha) [5]): > 300 nM
- Kd (antithrombin III): > 300 nM
- Kd (acidic FGF): > 300 nM
- Kd [6]: > 300 nM

B22: 7A (ssRNA)
RNA: GGGAGCUCAGAAUAAACGCUCAAUCGGCGAGCUAACCAAGACACUCGCUGCACUUCGACAUGAGGCCCGGAUCCGGC
- Kd (thrombin (alpha) [5]): > 300 nM
- Kd (antithrombin III): > 300 nM
- Kd (acidic FGF): > 300 nM
- Kd [6]: > 300 nM

B23: 26A (ssRNA)
RNA: GGGAGCUCAGAAUAAACGCUCAACGUCAGAAGGCAACGUAUAGGCAAGCACACUUCGACAUGAGGCCCGGAUCCGGC
- Kd (thrombin (alpha) [5]): > 300 nM
- Kd (antithrombin III): > 300 nM
- Kd (acidic FGF): > 300 nM
- Kd [6]: > 300 nM

B24: 30-6 (ssDNA)
DNA: AGATGCCTGTCGAGCATGCTACACCCGTGGTAGGGTAGGATGGGGTGGTCGTAGCTAAACTGCTTTGTCGACGGG
- Kd (thrombin (alpha) [7]): 1.2 nM

B25: 30-8 (ssDNA)
DNA: AGATGCCTGTCGAGCATGCTGTGAATAGGTAGGGTCGGATGGGCTACGGTGTAGCTAAACTGCTTTGTCGACGGG
- Kd (thrombin (alpha) [7]): 0.4 nM

B26: 30-14 (ssDNA)
DNA: AGATGCCTGTCGAGCATGCTGTTGTGGTAGGGTTAGGGATGGTAGCGGTTGTAGCTAAACTGCTTTGTCGACGGG
- Kd (thrombin (alpha) [7]): 1 nM

B27: 30-16 (ssDNA)
DNA: AGATGCCTGTCGAGCATGCTGCCGCTACGAGGGTAGGTGTGGATGCTGCCGTAGCTAAACTGCTTTGTCGACGGG
- Kd (thrombin (alpha) [7]): 9.4 nM

B28: 30-35 (ssDNA)
DNA: AGATGCCTGTCGAGCATGCTGGGAGTGGTAGGAGTAGGGTTGGAGCCGTAGTAGCTAAACTGCTTTGTCGACGGG
- Kd (thrombin (alpha) [7]): 1.4 nM

B29: 60-7 (ssDNA)
DNA: AGATGCCTGTCGAGCATGCTGGCGGCGTTGGTGTAGTGGCGCACTGTGGTTGGGCGGAGAGGCTAGGAGTGCATGATGCCGTAGCTAAACTGCTTTGTCGACGGG
- Kd (thrombin (alpha) [7]): 2.5 nM

B30: 60-18 (ssDNA)
DNA: AGATGCCTGTCGAGCATGCTCTTTGGAGACAGTCCGTGGTAGGGCAGGTTGGGGTGACTTCGTGGAAGAAGCGAGACGGTGTAGCTAAACTGCTTTGTCGA
- Kd (thrombin (alpha) [7]): 0.92 nM

B31: 60-18(38) (ssDNA)
DNA: CAGTCCGTGGTAGGGCAGGTTGGGGTGACTTCGTGGAA
- Kd (thrombin (alpha) [7]): 1.9 nM

B32: 60-27 (ssDNA)
DNA: AGATGCCTGTCGAGCATGCTGGCGTCCGATGATTCAGGTCGTGGTAGGCATTGAGGGATGGGGTCCTGTGGGACTGGCCTGTAGCTAAACTGCTTTGTCGACGGG
- Kd (thrombin (alpha) [7]): 0.96 nM
